The text below walks through data of paper PMC7494870, “Arrangement and symmetry of the fungal E3BP-containing core of the pyruvate dehydrogenase complex” (Nature Communications, 2020).

For series [1], the target named is T1, Neurospora crassa protein X (endogenous, in the native PDC) (N. crassa (endogenous in N. crassa …, UniProt Q7RWS2 1-426)).
T1 construct: Protein X (PX) of the pyruvate dehydrogenase complex, Neurospora crassa, uniprot Q7RWS2, locus NCU00050; Forms trimers inside the E2 core; also called PX; X-component; source: endogenous, PDC purified from N. crassa mitochondria (DDM lysis, sucrose cushion, sucrose gradient, SEC)
T1 sequence (looked up): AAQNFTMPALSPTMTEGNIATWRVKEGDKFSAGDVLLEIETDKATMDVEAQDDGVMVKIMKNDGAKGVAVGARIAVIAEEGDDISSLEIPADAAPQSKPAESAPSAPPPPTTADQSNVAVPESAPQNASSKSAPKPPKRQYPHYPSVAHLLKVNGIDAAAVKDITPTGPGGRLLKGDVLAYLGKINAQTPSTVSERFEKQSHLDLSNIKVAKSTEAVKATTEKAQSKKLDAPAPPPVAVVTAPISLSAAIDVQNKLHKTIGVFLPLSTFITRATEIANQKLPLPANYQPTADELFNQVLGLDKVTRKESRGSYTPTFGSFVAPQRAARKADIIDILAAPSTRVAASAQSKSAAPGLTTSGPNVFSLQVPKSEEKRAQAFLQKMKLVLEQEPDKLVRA
Nature of the series: cryo-EM structure; single-particle cryo-EM of intact native PDC purified from N. crassa mitochondria; icosahedral and tetrahedral (classes X, Y) reconstructions. The note with it: both partners purified.

Series [2] deals with the molecule itself. The description is as above.
For series [3], the target named is T2, N. crassa PX (30-426), His-tagged, separately expressed (N. crassa, UniProt Q7RWS2 30-426).
T2 construct: Protein X (PX), Neurospora crassa, residues 30-426 of uniprot Q7RWS2; His6 tag is cleavable with TEV; protein was either cleaved with TEV or eluted with imidazole depending on the purpose; also called full-length PX; source: E. coli Rosetta2 (DE3), pRSET vector, single expression, Ni-NTA
T2 sequence (looked up): T1 sequence (looked up)
Nature of the series: pull-down; separately expressed tE2 and His-tagged PX variants, brief incubation, co-purified by Ni-NTA affinity.

Series [4] deals with the molecule itself. Nature of the series: cryo-EM structure; single-particle cryo-EM of the reconstituted tE2 + PX30 recombinant subcomplex, icosahedral symmetry.
Series [5] deals with the molecule itself. As to the kind of experiment: cryo-EM structure; single-particle cryo-EM of the co-expressed tE2 + PX261 subcomplex, icosahedral symmetry.

B1: Neurospora crassa pyruvate dehydrogenase complex E2 (endogenous, core of the native PDC) (enzyme, UniProt P20285 29-458, looked up)
chain: ASYPPHTVVKMPALSPTMTSGGIGAWQKKPGDKIEPGEVLVEIETDKAQMDFEFQEEGVLAKILKDSGEKDVAVGNPIAILVEEGTDVNAFKDFTLKDAGGETSPAVPKDEPKNESTASAPTPAPTPAPEPENTSFTGRFQTALEREPNALPAAKRLAREKGIDLRNVKGSGPGGKITEEDVKKALASAPAAGAAAAAYTDVPISGMRKTIAARLKESVTENPHFFVSTNLSVSKLLKLRQALNSSADGRYKLSVNDFLIKAMGIASKRVPTVNSSWRDGVIRQFETVDVSVAVATPNGLITPIVKGVEGKGLESISAAVKELAKKARDGKLKPEEYQGGSISISNMGMNPAVQSFTAIINPPQAAILAVGAPQKVAVPVENEDGTTGVSWDEQIIVTASFDHKVVDGAVGAEWIRELKKVIENPLELLL
notes: E2 of the pyruvate dehydrogenase complex, Neurospora crassa, uniprot P20285; residues 232-458 identified in the native reconstruction; Icosahedral core of 60 E2 in the native complex; only the core-forming domain is ordered in the map; also called E2 core; PDC core; source: endogenous, PDC purified from N. crassa mitochondria (DDM lysis, sucrose cushion, sucrose gradient, SEC); copies: 60
For orientation: stoichiometry N means the number of molecules, sites or subunits per partner or assembly. On to B1, for which the “stoichiometry N” value in series [1] was not above 12 PX monomers per E2 core; in series [2], 60.

B2: N. crassa E2 core-forming domain, tE2 (225-458), separately expressed (domain or fragment, UniProt P20285 225-458, looked up)
chain: AAYTDVPISGMRKTIAARLKESVTENPHFFVSTNLSVSKLLKLRQALNSSADGRYKLSVNDFLIKAMGIASKRVPTVNSSWRDGVIRQFETVDVSVAVATPNGLITPIVKGVEGKGLESISAAVKELAKKARDGKLKPEEYQGGSISISNMGMNPAVQSFTAIINPPQAAILAVGAPQKVAVPVENEDGTTGVSWDEQIIVTASFDHKVVDGAVGAEWIRELKKVIENPLELLL
notes: E2 core-forming domain, Neurospora crassa, residues 225-458 of uniprot P20285; His6 tag is cleavable with thrombin; PDB 6ZLO covers residues 227-458; source: E. coli Rosetta2 (DE3), pRSET vector, single expression
B2: the binding result in series [3] and in series [4] was “binds” each time.

B3: N. crassa E2 core-forming domain, tE2 (225-458), untagged, co-expressed with PX constructs (domain or fragment, UniProt P20285 225-458, looked up)
chain: B2 chain
notes: E2 core-forming domain, Neurospora crassa, residues 225-458 of uniprot P20285; also called untagged E2 core-forming domain; source: E. coli Rosetta2 (DE3), petDuet dual-expression vector, co-expressed with His-tagged PX constructs, in lysate; co-purified on Ni-NTA
On to B3, for which, in series [5], the binding result is listed as “binds”.
